PMC4303546 (Cell reports, 2014)

Molecular target: GATOR2 purified from HEK293T cells (UniProt Q9NXC5 1-875; Q6PJI9 1-974; Q96S15 1-790; Q96EE3 1-360; P55735 1-322)
Assay: pull-down

B1: GST-Sesn2 (natural protein, UniProt P58004 1-480, looked up)
chain: MIVADSECRAELKDYLRFAPGGVGDSGPGEEQRESRARRGPRGPSAFIPVEEVLREGAESLEQHLGLEALMSSGRVDNLAVVMGLHPDYFTSFWRLHYLLLHTDGPLASSWRHYIAIMAAARHQCSYLVGSHMAEFLQTGGDPEWLLGLHRAPEKLRKLSEINKLLAHRPWLITKEHIQALLKTGEHTWSLAELIQALVLLTHCHSLSSFVFGCGILPEGDADGSPAPQAPTPPSEQSSPPSRDPLNNSGGFESARDVEALMERMQQLQESLLRDEGTSQEEMESRFELEKSESLLVTPSADILEPSPHPDMLCFVEDPTFGYEDFTRRGAQAPPTFRAQDYTWEDHGYSLIQRLYPEGGQLLDEKFQAAYSLTYNTIAMHSGVDTSVLRRAIWNYIHCVFGIRYDDYDYGEVNQLLERNLKVYIKTVACYPEKTTRRMYNLFWRHFRHSEKVHVNLLLLEARMQAALLYALRAITRYMT
binding result: binds
